Experimental data as given in patent publication US20030198640A1 (Human Genome Sciences, published 2003).

B1: full length TNF-gamma-beta expressed on the cell surface (HEK293F stable transfectants; cells transfected with TNF-gamma-β) (ligand)
chain: MAEDLGLSFGETASVEMLPEHGSCRPKARSSSARWALTCCLVLLPFLAGLTTYLLVSQLRAQGEACVQFQALKGQEFAPSHQQVYAPLRADGDKPRAHLTVVRQTPTQHFKNQFPALHWEHELGLAFTKNRMNYTNKFLLIPESGDYFIYSQVTFRGMTSECSEIRQAGRPNKPDSITVVITKVTDSYPEPTQLLMGTKSVCEVGSNWFQPIYLGAMFSLQEGDKLMVNVSDISLVDYTKEDKTFFGAFLL
notes: also called TNF-gamma-beta expressing cells
B2: TACI-Fc (extracellular domain of human TACI, aa 1-159, fused to the Fc domain of human IgG1) (Fc fusion, UniProt O14836 1-159, looked up)
chain: MSGLGRSRRGGRSRVDQEERFPQGLWTGVAMRSCPEEQYWDPLLGTCMSCKTICNHQSQRTCAAFCRSLSCRKEQGKFYDHLLRDCISCASICGQHPKQCAYFCENKLRSPVNLPPELRRQRSGEVENNSDNSGRYQGLEHRGSEASPALPGLKLSADQ
notes: range 1-159; also called TAC1 (Fc-fusion); not shown: Fc domain of human IgG1
B3: BCMA-Fc (Fc fusion, human, UniProt Q02223 1-54, looked up)
chain: MLQMAGQCSQNEYFDSLLHACIPCQLRCSSNTPPLTCQRYCNASVTNSVKGTNA
notes: not shown: Fc part
B4: DR3-Fc (extracellular domain of human DR3, aa 1-199, fused at its C-terminus to the Fc domain of human IgG1) (Fc fusion)
chain: QGGTRSPRCDCAGDFHKKIGLFCCRGCPAGHYLKAPCTEPCGNSTCLVCPQDTFLAWENHHNSECARCQACDEQASQVALENCSAVADTRCGCKPGWFVECQVSQCVSSSPFYCQPCLDCGALHRHTRLLCSRRDTDCGTCLPGFYEHGDGCVSCPTSTLGSCPERCAAVCGWRQ
notes: not shown: Fc domain of human IgG1

Legend:
[1] = target: T1, TR6-Fc (full-length human TNFR-6 alpha, SEQ ID NO:6 aa 1-300, fused to the Fc domain of human IgG1) (human, UniProt O95407 30-300); test: FACS on transfected cells
T1 construct: also called TNFR-6 alpha Fc fusion protein; DcR3-Fc; not shown: Fc domain of human IgG1
T1 sequence: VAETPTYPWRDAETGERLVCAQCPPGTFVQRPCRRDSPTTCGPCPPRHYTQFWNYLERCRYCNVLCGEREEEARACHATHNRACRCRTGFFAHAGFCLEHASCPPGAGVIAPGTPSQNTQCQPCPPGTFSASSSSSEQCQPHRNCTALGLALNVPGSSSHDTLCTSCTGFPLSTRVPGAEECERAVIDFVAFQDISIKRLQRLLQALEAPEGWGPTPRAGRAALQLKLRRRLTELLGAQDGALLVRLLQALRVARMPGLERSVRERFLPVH

[2] = target: T2, DR6 (Fc-fusion form of the extracellular domain) (UniProt O75509 42-349, limits assumed); test: flow cytometry on HEK293F cells expressing full length TNF-gamma-beta
T2 construct: extracellular domain; not shown: Fc part
T2 sequence (looked up): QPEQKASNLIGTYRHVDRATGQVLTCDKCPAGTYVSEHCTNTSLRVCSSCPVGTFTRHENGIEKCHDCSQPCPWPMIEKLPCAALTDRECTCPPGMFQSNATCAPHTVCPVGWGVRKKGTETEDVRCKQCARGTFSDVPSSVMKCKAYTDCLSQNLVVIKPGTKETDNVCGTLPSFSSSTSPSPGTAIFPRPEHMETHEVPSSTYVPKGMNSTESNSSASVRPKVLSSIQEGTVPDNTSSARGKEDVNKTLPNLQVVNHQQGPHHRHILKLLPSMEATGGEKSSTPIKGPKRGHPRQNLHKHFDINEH
Description: (§1) These cells were used to screen the Fc-fusion form of the extracellular domain of TNFR family members, including TNFR1, Fas, HveA, DR3, DR4, DR5, DR6, DcR1, DcR2, TR6, OPG, RANK, AITR, TAC1, CD40, and OX40. […] TR6 has been previously described as a decoy receptor (Pitti et al., Nature 396:699-703 (1998); Yu et al., J. Biol. Chem. 274:13733-6 (1999)) capable of competing with Fas and HveA for binding of FasL and LIGHT, respectively.
(§2) One million cells, in 0.1 ml of FACS buffer (PBS, 0.1% BSA, 0.1% NaN₃), were incubated with 0.1-1 microgram of protein or antibody at RT for 15 min. The cells were washed with 3 ml of FACS buffer, reacted with biotinylated primary antibody, and stained with PE-conjugated secondary antibody at RT for 15 min. Cells were then washed again, resuspended in 0.5 microgram/ml of propidium iodide, and live cells were gated and analyzed on a FACScan using the CellQuest software (BD Biosciences).

[3] = target: B1; test: as above
Description: as §1, §2

[4] = target: T3, FLAG-tagged soluble form of TNF-gamma-beta (aa 72-251) (human, UniProt O95150 72-251); test: co-immunoprecipitation with protein A-Sepharose, anti-Flag blot
T3 construct: also called FLAG-TL1β; FLAG-TNF-gamma-beta; not shown: FLAG tag of the pFLAG-CMV-1 vector at the amino terminus
T3 sequence: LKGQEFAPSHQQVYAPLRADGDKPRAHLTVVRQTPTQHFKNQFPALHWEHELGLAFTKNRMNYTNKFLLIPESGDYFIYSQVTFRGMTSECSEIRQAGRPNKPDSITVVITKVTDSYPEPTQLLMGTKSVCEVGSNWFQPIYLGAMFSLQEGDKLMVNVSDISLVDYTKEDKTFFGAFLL
Source text: The beads were then precipitated and washed extensively with PBST buffer (PBS, 0.5% Triton X-100) before boiled in SDS-sample buffer. Proteins were resolved on 4-20% Tris-Glycine gels (NOVEX), transferred to nitrocellulose membranes, and blotted with anti-Flag M2 monoclonal antibody (1 microgram/ml, Sigma) and horseradish peroxidase (HRP)-conjugated goat anti-mouse IgG antibody (0.5 microgram/ml).

[5] = target: T4, TNF-gamma-β polypeptide (amino acid residues 72-251 of SEQ ID NO:2), untagged recombinant protein (human, UniProt O95150 72-251); test: BIAcore, control receptor surface
T4 construct: also called TL1β
T4 sequence: T3 sequence
Description: (§3) TNFR-Fc were covalently immobilized to the BIAcore sensor chip (CM5 chip) via amine groups using N-ethyl-N′-(dimethylaminopropyl) carbodiimide/N-hydroxysuccinimide chemistry. […] The amount of bound protein was determined during washing of the flow cell with HBS buffer (10 mM HEPES, pH 7.4, 150 mM NaCl, 3.4 mM EDTA, 0.005% Surfactant P20). The flow cell surface was regenerated by displacing bound protein by washing with 20 microliters of 10 mM glycine-HCl, pH 2.3. For kinetic analysis, the on and off rates were determined using the kinetic evaluation program in BIAevaluation 3 software using a 1:1 binding model and the global analysis method.

[6] = target: T4, TNF-gamma-β polypeptide (amino acid …); test: BIAcore, DR3-Fc immobilised, average of three batches; DR3-Fc, average of three batches
Description: as §3

[7] = target: T4, TNF-gamma-β polypeptide (amino acid …); test: BIAcore, DR3-Fc immobilised, three batches of TNF-gamma-beta; DR3-Fc
Description: as §3

B1: binds [1]; no binding [2].

B2: no binding [3]; no binding [4].

B3: no binding (tested: 370 nM (top of the range 3-370 nM)) [5].

B4 showed a Kd [6] of 6.45 nM, a koff [7] of 0.00413 s⁻¹ and a kon [7] of 639000 M⁻¹ s⁻¹.
